FireProtDB

Details: Thermal, whole UniProt chain shown
[1] = Bos taurus, pH 6.5, Absorbance, None, reversible: no
[2] = Bos taurus, pH 7.4, Absorbance, phosphate, reversible: no
[3] = Glycine max, pH 7, DSC, HEPES/MOPS/ACES/Tris/triethanolamine/phosphate 17 mM/17 mM/17 mM/10 mM/13 mM/10 mM

B1: Beta-lactoglobulin wild type, P02754 (protein)
chain: MKCLLLALALTCGAQALIVTQTMKGLDIQKVAGTWYSLAMAASDISLLDAQSAPLRVYVEELKPTPEGDLEILLQKWENGECAQKKIIAEKTKIPAVFKIDALNENKVLVLDTDYKKYLLFCMENSAEPEQSLACQCLVRTPEVDDEALEKFDKALKALPMHIRLSFNPTQLEEQCHI
Tm (Bos taurus, pH 4, DSC, Unknown): 82 °C
Tm [1]: 80.1 °C
unfolding enthalpy (van 't Hoff) [1]: 55.5 kcal/mol
Tm [2]: 65.9 °C
unfolding enthalpy (van 't Hoff) [2]: 39.9 kcal/mol

B2: Tryptophan synthase alpha chain wild type, P0A877 (protein)
chain: MERYESLFAQLKERKEGAFVPFVTLGDPGIEQSLKIIDTLIEAGADALELGIPFSDPLADGPTIQNATLRAFAAGVTPAQCFEMLALIRQKHPTIPIGLLMYANLVFNKGIDEFYAQCEKVGVDSVLVADVPVEESAPFRQAALRHNVAPIFICPPNADDDLLRQIASYGRGYTYLLSRAGVTGAENRAALPLNHLVAKLKEYNAAPPLQGFGISAPDQVKAAIDAGAAGAISGSAIVKIIEQHINEPEKMLAALKVFVQPMKAATRS
Tm (Escherichia coli (strain K12), pH 8.98, DSC, sodium tetraborate 1 mM): 54.2 °C

B3: Trypsin inhibitor B wild type, P01071 (protein)
chain: DFVLDNEGNPLSNGGTYYILSDITAFGGIRAAPTGNERCPLTVVQSRNELDKGIGTIISSPFRIRFIAEGNPLRLKFDSFAVIMLCVGIPTEWSVVEDLPEGPAVKIGENKDAVDGWFRIERVSDDEFNNYKLVFCTQQAEDDKCGDIGISIDHDDGTRRLVVSKNKPLVVQFQKVDKESL
Tm [3]: 59 °C
heat capacity change of unfolding [3]: 2.63 kcal/mol/K
unfolding enthalpy (calorimetric) [3]: 103 kcal/mol
